Assay results: the DeepSol protein solubility set

Experiment: soluble on expression in E. coli; label from the status in PepcDB or PDB records

Q: Which “soluble on expression in E. coli” value does the source give for “MSLKITLFGGAGFLGSHVCDKLSEAGHDVTVVDLRPSPYLRPDQTMITGNILDEELVARAVEGADMVFNYAGIADIGEANRRPVDTARINVLGNVIALEACRKAGVKRYVFASSLYVYGKSGGFYRCSKQACELYIENYQAMHGLDYTILRYGSLYGSRADIRNAINRFVAEALEKGAITYYGSPTALREYIHVEDAALCTVEVLKPEYANENIVLSGNQPMRVGDLFKMIGEMLGKDIEVVYQHDPNSGHYQITPYAFMPKVGKKMTPILTTDLGQGILRVMEDVHREMHPDMHDVGGYLVSKDEGHHHHHH” here?
A: Its value is “soluble”.

Q: With “MSLKKDTSEQSVEQSEVGLSLEELIRRGARDLIERAIEVEVQQLLAEYENVRMLGGSRAVVRNGYLPAREVLTAVGNVEVRVPKVRDRSGAGVKFNSALVPPYVRRSARVSAALPWLYLKGISTGDMREALTVLLGDEAKGLSPNVVSRLKTEWASDYAGWMKRDLSGSRYVYWWADGVHTSLRGEDDARQCLLVVIGVRLDGTKELVTVGDGHRESKASWLELLRDLKARGLEVGPRLAVGDGALGFWGALDELYPETRRQRCWVHKSANVLNALNALPKSLQAKAKAQLHEIWMAPTRAAAVSAFERFVECYQAKYPKAADKLVRDRDALLAFYDFPAEHWIHLRTTNPIESTFATVRHRTTRTKNCVSRSSFLGLAFKLVQEAEKSWRRIRGVERIAELMGGVVFKDGEPVKDEGHHHHHH” as the sequence, how does the “soluble on expression in E. coli” value read?
A: Its value is “soluble”.

Q: With “MSLKKETLSDRLNKAMELAGMSQGALAKASGVAQPTIWRLTSGNARGSTKIVEIANALGVNSEWLSTGIGPMKKDGTTPINASPSSNTFKIDILDLEVSAGPGVINREFVEILRSVEYSQDDARHMFDGRKAENIRIINVRGDSMSGTIEPGDLLFVDVSIKNFDGDGIYAFLYDDTAHVKRLQKMKDKLLVISDNKSYSAWDPIERDEMNRVFVFGKVIGSMPQTYRKHGEGHHHHHH” as the sequence, how does the “soluble on expression in E. coli” value read?
A: Its value is “soluble”.

Q: Which “soluble on expression in E. coli” value does the source give for “MSLKKIQFFDTTLRDGEQTPGVNFDVKEKIQIALQLEKLGIDVIEAGFPISSPGDFECVKAIAKAIKHCSVTGLARCVEGDIDRAEEALKDAVSPQIHIFLATSDVHMEYKLKMSRAEVLASIKHHISYARQKFDVVQFSPEDATRSDRAFLIEAVQTAIDAGATVINIPDTVGYTNPTEFGQLFQDLRREIKQFDDIIFASHCHDDLGMATANALAAIENGARRVEGTINGIGERAGNTALEEVAVALHIRKDFYQAETNIVLNQFKNSSDLISRLSGMPVPRNKAVIGGNAYAHESGIHQDGVLKNPDTYEIITPALVGVDKNSLPLGKLSGKHAFNTRMEEMGYTLTEQEQKDAFKRFKQLADAKKEVTEEDLHALILGQSSESADDFELKHLQVQYVTGGVQGAIVRIEERDGALVEDAATGSGSIEAIYNTINRLMKQDIELTDYRIQAITAGQDAQAEVHVVIKNDKGAVFHGIGIDFDVLTASAKAYLQASGKSKTASKQADFEEVKEGHHHHHH” here?
A: The value was “not soluble”.

Q: For “MSLKKLDYHFHSHFSADSEELPRKHVTEAIAHGLEEICFTEHRDFYFPGMDFSLNLPEYFQEINRLQAEFKDKIKIKIGLEMGIDLRFKSEINQFIDSAPFDFVIASVHEIGDIEVYDGTEFYLQKIKEEAQREYLLACLDVVQNFENYNSFGHLDYVARYGPYTDKSIKFAENREILFEILRALASKEKALEINTRLFDDPKTEQFYSDLLINFKKLGGKFITLGTDSHIAKRDWLSIHKARTLIKKAGFHELATFSGMKIDKNKKSIKEGHHHHHH”, which “soluble on expression in E. coli” value is on record?
A: Its value is “soluble”.

Q: For “MSLKKQPGFTQDYLLSKATTLPDKTRLERAVEPLCARHPGECGILALDNSLDAFAARYRLTEMAARTLDVQYYIWEDDMSGRLLFSVLLSAAKRGVHVRLLLDDNNTPGLDDTLRLLDSHPNIEVRLFNPFSFRTLRALGYLTDFARLNRRMHNKSYTADGVVTLVGGRNIGDAYFGAGEEPLFSDLDVMAIGPVVNDVANDFERYWRCSSVSTLQQVLSLSEQELTQRIELPESWYNDEITRRYLHKLETSQFMADLDCGTLPLIWAKTRLLSDDPSKGEGKAQRHSLLPQRLFDVMGSPTERIDIISAYFVPTRAGVAQLLNLVRKGVKIAILTNSLAANDVAVVHAGYARWRKKLLRYGVELYELKPTREHETAVHDRGLTGNSGSSLHAKTFSIDGSKVFIGSLNFDPRSTLLNTEMGFVIESETLATLIHKRFTQSQRDAAWQLRLDRWGRINWIDRQQEEEKVLKKEPATRFWQRVLVRLAAILPVEWLLEGHHHHHH”, which “soluble on expression in E. coli” value is on record?
A: Its value is “soluble”.

Q: Which “soluble on expression in E. coli” value does the source give for “MSLKLPGKIAIMGGGSWATAIAKMCLAQEDSINWYMRRDDRIADFKRLGHNPAYLTGVKFDTKRITFSSNINDVVKESDTLIFVTPSPYLKAHLKKLKTKIKDKFIITAIKGIVPDDNVIVSEYFTKEYGVPPENIAVLAGPCHAEEVALERLSYLTIACPDKDKARIFARRLGSSFIKTSVSDDVAGIEYSSVLKNVYAIAAGICSGLKYGDNFQAVLISNAIQEMNRFLNTVHPLNRNVDDSVYLGDLLVTGYSNFSRNRTFGSMIGKGYSVKSAQIEMEMIAEGYYGTKCIKEINKHHHVNMPILDAVYNILYERISPMIEIKLLTDSFREGHHHHHH” here?
A: The value was “soluble”.

Q: With “MSLKLRARLPRGLADRGPAEIAATRAMVEKIREVYERYGFEPVETPAFEYTDALGKFLPDQDRPNEGVFSLQDDDEQWISLRYDLTAPLARYVAENFDQLPKPHRSYRFGWVFRNEKPGPGRFRQFMQFDADTVGAPTAAADAEMCMMAADTMEALGIPRGSYVVKVNNRKVLDGVLESIGLGGDENAGRRLTVLRAIDKSDKFAPEEIKKLLGPGRWDGGEEGKGDFTKGAMLSDDQSELILRATSPSFIAGRFNADGSGGISNIDTVELLRSTADNETLKQGCDELAVIADLLDACGYGATSANPDVRVVIDPSVVRGLEYYTGPVYEVELLLDTKDEKGRPVRFGSVGGGGRYDGLVSRFRGEPVPATGFSIGVSRLQAALTLIGQLGNKPQAGPVVVTVFGGEIAGYQKMVATLRKAGIRAELYLGNPKHSLGQQMKYADKRNSPCAIIQGSDEKQQGIVQIKDLILGAELASLEKDRDEYLKKQAEAQFSEGHHHHHH” as the sequence, how does the “soluble on expression in E. coli” value read?
A: Its value is “not soluble”.

Q: For “MSLKMFEVPVSSVSISINSALLKGCRKFMVLGYGEIGKLAIKHLLSHKVECIYLIVRDKSKASDLEGEIVEVLDFNEKNQVINEIDCIVSCTAAPHTVVRNEDIKTEGETIHIYDLAVPRDVDKELSEKERVILKDIDEISKIDDKNKKIRKERMEEYKHIVEESIDEFLNWLKIREVSSKIRNIKIREGHHHHHH”, which “soluble on expression in E. coli” value is on record?
A: The value was “not soluble”.

Q: For “MSLKNILIIGANGFTGRRILNDLSVNPIYHVTGCSLRDDICPGKDYRFVRTDIRDENEVRKLFKECRPDIVINTSALSVPDYCETHHAEAEATNVTAVETIAHVCEQYGSRFIHLSTDFVFDGKSTRLYKEEDEAIPVNYYGVTKLKAEKIIASICSNYAIVRVVVVYGKALPGQHGNILQLVANRLRNGETIRVVSDQWRTPTFVGDISVGVEKLMFHTANGIYHICGSECLTIAEIAYRVADFLKLDRSLIEPVTTEEMKEVTPRPRFSGLSIEKAKAEIGYTPRTLEEGMEASEGHHHHHH”, which “soluble on expression in E. coli” value is on record?
A: Its value is “soluble”.

Q: Which “soluble on expression in E. coli” value does the source give for “MSLKNISLAMLARQIGVGVATVDRVLNERGGVSPQTTRKVLQAAREAGLKRILPEEHRFPWQIEVFLSSNDSFFFPQLAQDFAAVADSLGYRRLTLHRTFVPESQPTTLARRIARSCQQRQGIIVFGNDHPAVHDALRRCREAGVPAITLATDLPGADRLCHVGINQLQAGRTAGLMLGRMTPRPGEVLMVSGRQDYSAHRLRIQGFREVLSQRFPHLQLSDVLAGEERREQITRLVEQALCRSRNIVGIYNTGLGNTQIAEALARHRREGDVCWITHERYNTTRQQLAKGSLALTLDQNTRQHAQLAIDLMLRHLESGYQPQTYADGKVDFILYSAENVDEGHHHHHH” here?
A: Its value is “soluble”.

Q: With “MSLKNKLQVKIPGKLYVAGEYAVVESGHTAILTAVNRYITLTLEDSERNELWIPHYENPVSWPIGGELKPDGEHWTFTAEAINIATTFLKSEGIELTPVKMVIETELIDQSGAKYGLGSSAAATVAVINALMTKFYPEISMLKKFKLAALSHLVVQGNGSCGDIASCMYGGWIAYTTFDQEWVKHRLAYKSLEWFMKEPWPMLQIETLEEPVPTFSVGWTGTPVSTGKLVSQIHAFKQEDSKNYQHFLTRNNEIMKQIIQAFHTKDEELLYSSIKENRRILQELGTKAGVNIETSLLKELADSAENMGGAGKSSGSGGGDCGIAFSKTKELAEKLVNEWEKLGIKHLPFHTGRVQITEGHHHHHH” as the sequence, how does the “soluble on expression in E. coli” value read?
A: The value was “soluble”.
